Laboratory results reported in article PMC2709796.

Target: human LRP purified from placenta (human)
Assay: SPR

B1: hexa-His-tagged fragment of sorLA including the YWTD-repeated β-propeller, the single EGF-domain and the 11 CR-domains (residues 728-1526) (domain or fragment)
chain: YRKISGDTCSGGDVEARLEGELVPCPLAEENEFILYAVRKSIYRYDLASGATEQLPLTGLRAAVALDFDYEHNCLYWSDLALDVIQRLCLNGSTGQEVIINSGLETVEALAFEPLSQLLYWVDAGFKKIEVANPDGDFRLTIVNSSVLDRPRALVLVPQEGVMFWTDWGDLKPGIYRSNMDGSAAYHLVSEDVKWPNGISVDDQWIYWTDAYLECIERITFSGQQRSVILDNLPHPYAIAVFKNEIYWDDWSQLSIFRASKYSGSQMEILANQLTGLMDMKIFYKGKNTGSNACVPRPCSLLCLPKANNSRSCRCPEDVSSSVLPSGDLMCDCPQGYQLKNNTCVKQENTCLRNQYRCSNGNCINSIWWCDFDNDCGDMSDERNCPTTICDLDTQFRCQESGTCIPLSYKCDLEDDCGDNSDESHCEMHQCRSDEYNCSSGMCIRSSWVCDGDNDCRDWSDEANCTAIYHTCEASNFQCRNGHCIPQRWACDGDTDCQDGSDEDPVNCEKKCNGFRCPNGTCIPSSKHCDGLRDCSDGSDEQHCEPLCTHFMDFVCKNRQQCLFHSMVCDGIIQCRDGSDEDAAFAGCSQDPEFHKVCDEFGFQCQNGVCISLIWKCDGMDDCGDYSDEANCENPTEAPNCSRYFQFRCENGHCIPNRWKCDRENDCGDWSDEKDCGDSHILPFSTPGPSTCLPNYYRCSSGTCVMDTWVCDGYRDCADGSDEEACPLLANVTAASTPTQLGRCDRFEFECHQPKTCIPNWKRCDGHQDCQDGRDEANCPTHSTLTCMSREFQCEDGEA
Kd: 36.5 nM | koff: 0.00015 s⁻¹ | kon: 4110 M⁻¹ s⁻¹
